Legend:
Assay in all cases: cell_activity
I-ScaI D90S D90S = conditions: catalytically inactive, background; binding not tested
I-ScaI I250N I250N = conditions: three site copies in pBar2, E. coli
I-ScaI = conditions: three site copies in pBar2, E. coli

Sequence: TGAGGTGCACTAGTTA (double strand) [I-ScaI site]
- activity (I-ScaI D90S D90S): 18 % survival
- activity (I-ScaI I250N I250N): 27 % survival
- activity (I-ScaI): 65 % survival

Reference: US7476500
